The assay has as its target E. coli β-clamp labelled with RED-maleimide dye (MST) (E. coli, UniProt P0A988 1-366, RED-maleimide fluorescent dye (RED-Maleimide Labelling Kit, NanoTemper); site not stated). Kind of assay: MST.

Usually Kd stands for the equilibrium constant for the complex coming apart. Take Ac-MDRWLVKWKKKRKIRRRRRRRRRRR-NH2 (also: TFA salt) [Cell penetrating APIM-peptide RWLVK (Ac-MD-RWLVK-WKKKRKI-RRRRRRRRRRR)]: the equilibrium dissociation constant (Kd) was 35 µM.
With Ac-MDRFSLKWKKKRKIRRRRRRRRRRR-NH2 (also: TFA salt) [Cell penetrating APIM-peptide RFSLK (Ac-MD-RFSLK-WKKKRKI-RRRRRRRRRRR)] the figure was 19 µM.

For the origin of these results see publication PMC7261172 (2020).
